According to patent US20160289280A1, “Fusion protein of recombinant ganoderma immunoregulatory protein and human serum albumin, preparation method thereof, and application thereof” (priority 2013, published 2016):

B1: rLZ-8-HSA: fusion protein of ganoderma immunoregulatory protein (LZ-8) and human serum albumin, linker GGGGSS, SEQ ID NO. 1 (protein)
chain: SDTALIFRLAWDVKKLSFDYTPNWGRGNPNNFIDTVTFPKVLTDKAYTYRVAVSGRNLGVKPSYAVESDGSGKVNFLEYNSGYGIADTNTIGVFVVDPDTNNDFIIAGWNGGGGSSMKWVTFISLLFLFSSAYSRGVFRRDAHKSEVAHRFKDLGEENFKALVLIAFAGYLGGCPFEDHVKLVNEVTEFAKTCVADESAENCDKSLHTLFGDKLCTVATLRETYGEMADCCAKGEPERNECFLGHKDDNPNLPRLVRPEVDVMCTAFHDNEETFLKKYLYEIARRHPYFYAPELLFFAKRYKAAFTECCGAADKAACLLPKLDELRDEGKASSAKGRLKCASLGKFGERAFKAWAVARLSGRFPKAEFAEVSKLVTDLTKVHTECCHGDLLECADDRADLAKYICENGDSISSKLKECCEKPLLEKSHCIAEVENDEMPADLPSLAADFVESKDVCKNYAEAKDVFLGMFLYEYARRHPDYSVVLLLRLAKTYETTLEKCCAAADPHECYAKVFDEFKPLVEEPGNLIKGNCELFEGLGEYKFGNALLVRYTKKVPGVSTPTLVEVSRNLGKVGSKCCKHPEAKRMPCAEDYLSVVLNGLCVLHEKTPVSDRVTKCCTESLVNRRPCFSALEVDETYVPKEFNAETFTFHADICTLSEKERGIKKGTALVELVKHKPKATKEGLKAVMDDFAAFVEKCCKADDKETCFAEEGKKLVAASGAALGL
modifications: rLZ-8-HSA sequence
B2: rLZ-8: recombinant ganoderma immunoregulatory protein which is not fused, comparator (protein, UniProt P14945 2-111, looked up)
Immunomodulatory protein Ling …: SDTALIFRLAWDVKKLSFDYTPNWGRGNPNNFIDTVTFPKVLTDKAYTYRVAVSGRNLGVKPSYAVESDGSQKVNFLEYNSGYGIADTNTIQVFVVDPDTNNDFIIAQWN

Experiments:
[1] = test system: mouse melanoma cells B16-F10; assay: mouse B16-F10 transplanted tumor model, in situ tumor weight; assay type: in vivo; settings: tail vein once a day, 28 days
Description: In vivo experiment: firstly, establishing a mouse tumor mould, wherein mouse melanoma cells B16-F10 is cultured with the DMEM comprising 10% fetal calf serum at 37° C. in a CO2 incubation device; slowly subcutaneously injecting 200 μl B16-F10 cell suspension (comprising 1×10^7 cells) with a 1 ml injector at mouse dorsal-ventral skin, so as to establish a mouse transplanted tumor mould.

[2] = test system: mouse S180 Ehrlich ascites tumor; assay: in vitro inhibition effect on mouse S180 Ehrlich ascites tumor, WST-1 method; assay type: cell-based; settings: 24 h, x ± s, n = 9
Description: (§1) In vitro experiment: testing the inhibition effect of the fusion protein rLZ-8-HSA on the mouse 5180 Ehrlich ascites tumor through the WST-1 method, preparing tissue suspension of the mouse S180 Ehrlich ascites tumor; adding 100 μl the tissue suspension into 900 μl 2% glacial acetic acid and counting with a microscope; adjusting a tissue concentration to 2×10^5/ml with DMEM comprising 2% calf serum; respectively preparing the fusion protein rLZ-8-HSA and the rLZ-8 with same molar concentration gradient, wherein there are 3 gradient concentrations, each concentration occupies 9 wells with 100 μl per well; adding tissue suspension with a concentration of 2×10^5/ml with 100 μl per well; shaking for evenly mixing, and then putting into a 37° C., 5% CO2 incubation device to incubate for 24 h; after incubation, adding WST-1 with 20 μl per well; putting into the 37° C., 5% CO2 incubation device to incubate for 3 h, then testing OD450 (with a BIO-RAD); wherein results are listed in table 5.

melanoma = assay: in vitro inhibition effect on melanoma, WST-1 method; assay type: cell-based; settings: 24 h, x ± s, n = 9
Description: as §1, with “the melanoma” for “the mouse 5180 Ehrlich ascites tumor”, “through a” for “through the”, “the melanoma;” for “the mouse S180 Ehrlich ascites tumor;”, “table 3.” for “table 5.”

| Molecule | tumor inhibition rate ([1]; high-dosage 492 μg/kg (LZ-8)) | tumor weight ([1]; high-dosage 492 μg/kg (LZ-8)) | tumor inhibition rate ([1]; low-dosage 123 μg/kg (LZ-8)) | tumor weight ([1]; low-dosage 123 μg/kg (LZ-8)) | tumor inhibition rate ([1]; middle-dosage 246 μg/kg (LZ-8)) | tumor weight ([1]; middle-dosage 246 μg/kg (LZ-8)) | OD450, inhibition effect on mouse S180 Ehrlich ascites tumor ([2]; protein 5.0 × 10^−9 mol/L) | OD450, inhibition effect on mouse S180 Ehrlich ascites tumor ([2]; protein 10.0 × 10^−9 mol/L) | OD450, inhibition effect on mouse S180 Ehrlich ascites tumor ([2]; protein 15.0 × 10^−9 mol/L) | OD450, inhibition effect on melanoma (melanoma; protein 5.0 × 10^−9 mol/L) | OD450, inhibition effect on melanoma (melanoma; protein 10.0 × 10^−9 mol/L) | OD450, inhibition effect on melanoma (melanoma; protein 15.0 × 10^−9 mol/L) |
| --- | --- | --- | --- | --- | --- | --- | --- | --- | --- | --- | --- | --- |
| B1 | 89.51 ± 0.88 % | 0.13 ± 0.05 g | 71.77 ± 0.31 % | 0.35 ± 0.11 g | 78.22 ± 0.47 % | 0.27 ± 0.14 g | 0.408 ± 0.21 | 0.233 ± 0.18 | 0.127 ± 0.15 | 0.411 ± 0.31 | 0.212 ± 0.29 | 0.118 ± 0.11 |
| B2 | 83.04 ± 0.51 % | 0.25 ± 0.04 g | 56.72 ± 0.41% | 0.53 ± 0.21 g | 64.91 ± 0.77% | 0.43 ± 0.17 g | 0.453 ± 0.23 | 0.366 ± 0.31 | 0.345 ± 0.27 | 0.427 ± 0.44 | 0.372 ± 0.21 | 0.302 ± 0.24 |
